Source: US20230009582A1 (MEMO THERAPEUTICS, published 2023)

T1: Siglec-5-Fc (R&D systems) (UniProt O15389 17-434, limits assumed)
T1 construct: Bought reagent; not shown: Fc part of the bought fusion; not described
T1 sequence (looked up): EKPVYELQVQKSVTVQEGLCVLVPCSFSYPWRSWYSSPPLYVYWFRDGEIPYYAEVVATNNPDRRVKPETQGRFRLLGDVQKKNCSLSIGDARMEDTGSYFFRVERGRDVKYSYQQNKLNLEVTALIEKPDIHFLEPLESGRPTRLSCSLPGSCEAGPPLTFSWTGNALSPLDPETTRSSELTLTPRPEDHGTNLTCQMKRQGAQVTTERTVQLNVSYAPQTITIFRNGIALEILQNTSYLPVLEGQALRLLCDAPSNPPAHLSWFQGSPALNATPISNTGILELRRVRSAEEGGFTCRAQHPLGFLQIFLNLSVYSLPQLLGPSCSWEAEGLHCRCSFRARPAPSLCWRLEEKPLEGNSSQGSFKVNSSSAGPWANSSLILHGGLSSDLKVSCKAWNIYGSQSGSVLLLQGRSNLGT


Key:
[1] = target: T2, Siglec-9 protein (construct not stated; antigen of Examples 3 and 4) (human, UniProt Q9Y336 18-348, limits assumed); assay: ELISA, coated Siglec-9 1 µg/ml, antibody titrated, Abs 450 nm, three-parameter fit, n=3
Method: (§1) FIG. 2: Binding curves of monoclonal antibodies (68D4 and 224B1; comparative monoclonal antibodies mAbA and 5C6 & negative control 53C3) towards Siglec-9 as analysed by ELISA. Binding of the monoclonal antibody to Siglec-9, as determined by measurement of the accumulated coloured product at 450 nm after stopping the reaction, is plotted against the concentration of the monoclonal antibody under evaluation.
(§2) Antibody binding affinity towards Siglec-9 was measured by a dilution series of the analysed antibodies on a fixed concentration of Siglec-9 protein in ELISA. To this end, Siglec-9 was coated at 1 μg/ml in 50 mM carbonate-bicarbonate buffer pH 9.6 for 15-20 hours at 4° C. Antigen solution was washed away (Tecan Hydrospeed) and plates were blocked with 5% skimmed milk in phosphate-buffered saline (PBS) for 1 hour at room temperature. Plates were washed and antibodies were added at concentrations of 0-420 nM. After incubation at room temperature for 1 hour plates were washed once more. Bound antibodies were detected by addition of horseradish peroxidase (HRP)-coupled secondary antibodies. Rabbit antibodies were detected by polyclonal anti-rabbit IgG antibody (Biolegend), mAbA by anti-human Fab fragment (Sigma Aldrich). After a last washing step, plates were developed by the addition of 3,3′,5,5′-Tetramethylbenzidine (TMB; Sigma Aldrich). Reaction was stopped by addition of sulfuric acid. Absorbance was detected at 450 nm (Tecan, CM […] MONO 200). Data were fitted and EC50 values were determined by three-parameter analysis in GraphPad Prism (GraphPad Software)

[2] = target: T3, Siglec-9 expressed on cells (human, UniProt Q9Y336 18-463); assay: flow cytometry on human CD14+ monocytes in PBMC
T3 construct: also called monocyte-expressed Siglec-9
Method: (§3) Human ex vivo PBMC were stained with fluorescence-labeled (allophycocyanin, APC) antibody to the monocyte marker CD14 (Biolegend) in assay buffer (0.5% (v/v) heat-inactivated fetal bovine serum (Gibco), 2 mM EDTA in phosphate-buffered saline). Subsequently, cells were incubated with antibodies under evaluation at various concentrations (67 nM-0.38 pM). After a washing step cells were incubated with fluorescence-labeled (Brilliant Violet 421™) secondary antibody against human IgG (mAbA) or rabbit IgG (all other monoclonal antibodies under evaluation; both secondary antibodies from Biolegend).
(§4) Binding of Siglec-9-specific antibodies to monocytes (CD14-positive life cells) was analysed with a CytoFLEX flow cytometer (Beckham Coulter's). The mean fluorescence intensity of the secondary antibody staining in the CD14-positive population at each dilution was determined using Flow Jo software (BD). Datapoints generated by this analysis were fitted and EC50 values were determined by three-parameter analysis in GraphPad Prism (GraphPad Software)

[3] = target: T3, Siglec-9 expressed on cells; assay: flow cytometry on human CD14+ monocytes (PBMC), mean RFU of the secondary antibody, three-parameter fit
Method: as §3, §4

[4] = target: T4, Siglec-7-Fc (in-house production); assay: ELISA, coated Siglec-7-Fc 1 µg/ml, antibody at 5 µg/ml (33 nM), Abs 450 nm, n=3
T4 construct: The entry holds the Siglec-7 part and the Fc together; also called Siglec-7-Fc protein
Method: (§5) Specificity towards Siglec-5, Siglec-7, Siglec-8, Siglec-15 and Siglec-9 was assayed in enzyme-linked immunosorbent assay (ELISA) using 96 well half-area ELISA plates (Corning). Siglec-5-Fc (R&D systems), Siglec-7-Fc (in-house production, Siglec-7-Fc protein used had the following amino acid sequence:
(§6) (SEQ ID NO: 59)) […] […] […] […] […] […] […] […] […] […] […] […], Siglec-8-Fc (R&D systems), Siglec-15- Fc (R&D systems) and Siglec-9-Fc (in-house production, SEQ ID NO: 11) were coated at 1 μg/ml in 50 mM carbonate-bicarbonate buffer pH 9.6 for 15-20 hours at 4° C.
(§7) Antigens were washed away (Tecan Hydrospeed) and plates were blocked with 5% skimmed milk in phosphate-buffered saline (PBS). After washing the plates, antibodies were added at 5 μg/ml (33 nM) in 0.5% milk PBS in triplicates. Plates with antibodies were incubated for 1 hour at room temperature. Plates were washed and bound antibodies were detected by horseradish peroxidase (HRP)-labeled polyclonal anti-rabbit IgG antibody (Biolegend) or anti-human Fab fragment for mAbA (Sigma Aldrich). 3,3′,5,5′-Tetramethylbenzidine (TMB; Sigma Aldrich) development was stopped by addition of sulfuric acid and absorbance was detected at 450 nm (Tecan, CM […] MONO 200).

[5] = target: T5, Siglec-8-Fc (R&D systems) (UniProt Q9NYZ4 17-363, limits assumed); assay: ELISA, coated Siglec-8-Fc 1 µg/ml, single antibody concentration, Abs 450 nm, n=3
T5 construct: Bought reagent; not shown: Fc part of the bought fusion; not described
Method: as §5, §6, §7

[6] = target: T3, Siglec-9 expressed on cells; assay: flow cytometry on human CD14+ monocytes (PBMC), mean RFU of the anti-human secondary antibody, three-parameter fit
Method: as §3, §4

[7] = target: T1, Siglec-5-Fc (R&D systems); assay: ELISA, coated Siglec-5-Fc 1 µg/ml, single antibody concentration, anti-human Fab detection, Abs 450 nm, n=3
Method: as §5, §6, §7

[8] = target: T2, Siglec-9 protein (construct not stated; …); assay: ELISA, coated Siglec-9 1 µg/ml, antibody titrated, anti-human Fab detection, Abs 450 nm, three-parameter fit, n=3
Method: as §1
as §2, with “After incubation at room temperature for 1 hour plates were washed once more.” left out, “After a last washing step, plates were developed by the addition of 3,3′,5,5′-Tetramethylbenzidine (TMB; Sigma Aldrich). Reaction was stopped by addition of sulfuric acid.” left out

T3 sequence (Q9Y336 18-463 limits assumed): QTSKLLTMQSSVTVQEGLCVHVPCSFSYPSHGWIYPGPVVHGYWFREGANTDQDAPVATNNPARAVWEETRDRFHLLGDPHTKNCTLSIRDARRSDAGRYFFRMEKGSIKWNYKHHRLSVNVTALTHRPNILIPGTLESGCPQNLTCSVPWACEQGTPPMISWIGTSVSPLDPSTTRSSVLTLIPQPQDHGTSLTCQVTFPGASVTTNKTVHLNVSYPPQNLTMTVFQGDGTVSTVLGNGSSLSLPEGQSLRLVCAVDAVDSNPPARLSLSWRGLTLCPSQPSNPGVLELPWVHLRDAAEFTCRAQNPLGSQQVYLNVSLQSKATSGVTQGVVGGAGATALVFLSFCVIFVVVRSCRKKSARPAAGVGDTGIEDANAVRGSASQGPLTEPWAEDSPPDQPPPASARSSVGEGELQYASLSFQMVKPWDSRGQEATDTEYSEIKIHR
T2 sequence (Q9Y336 18-348 limits assumed): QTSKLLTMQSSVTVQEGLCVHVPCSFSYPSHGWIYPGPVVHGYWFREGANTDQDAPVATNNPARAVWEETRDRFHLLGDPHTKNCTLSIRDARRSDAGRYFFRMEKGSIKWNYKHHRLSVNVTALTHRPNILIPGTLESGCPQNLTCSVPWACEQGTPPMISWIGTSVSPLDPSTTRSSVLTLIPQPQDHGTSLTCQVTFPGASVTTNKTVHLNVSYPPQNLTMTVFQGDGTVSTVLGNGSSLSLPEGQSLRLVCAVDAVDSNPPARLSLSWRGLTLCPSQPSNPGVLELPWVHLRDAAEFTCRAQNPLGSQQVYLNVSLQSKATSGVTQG
T4 sequence (chain, as listed by the source limits assumed): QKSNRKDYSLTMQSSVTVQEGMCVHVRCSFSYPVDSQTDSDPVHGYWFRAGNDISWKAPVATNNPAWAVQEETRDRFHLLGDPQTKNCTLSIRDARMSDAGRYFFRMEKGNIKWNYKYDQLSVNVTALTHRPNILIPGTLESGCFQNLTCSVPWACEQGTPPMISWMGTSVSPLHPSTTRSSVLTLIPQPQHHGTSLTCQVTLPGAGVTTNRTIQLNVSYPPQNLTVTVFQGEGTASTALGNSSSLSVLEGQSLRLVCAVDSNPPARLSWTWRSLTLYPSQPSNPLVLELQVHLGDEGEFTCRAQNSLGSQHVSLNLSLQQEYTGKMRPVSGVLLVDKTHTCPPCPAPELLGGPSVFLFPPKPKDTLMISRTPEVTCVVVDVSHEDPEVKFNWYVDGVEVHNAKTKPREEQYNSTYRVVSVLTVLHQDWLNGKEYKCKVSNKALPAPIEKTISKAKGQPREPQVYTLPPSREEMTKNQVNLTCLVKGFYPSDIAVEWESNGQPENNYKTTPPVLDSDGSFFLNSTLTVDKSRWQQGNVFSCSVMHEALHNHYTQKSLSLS
T5 sequence (Q9NYZ4 17-363 limits assumed): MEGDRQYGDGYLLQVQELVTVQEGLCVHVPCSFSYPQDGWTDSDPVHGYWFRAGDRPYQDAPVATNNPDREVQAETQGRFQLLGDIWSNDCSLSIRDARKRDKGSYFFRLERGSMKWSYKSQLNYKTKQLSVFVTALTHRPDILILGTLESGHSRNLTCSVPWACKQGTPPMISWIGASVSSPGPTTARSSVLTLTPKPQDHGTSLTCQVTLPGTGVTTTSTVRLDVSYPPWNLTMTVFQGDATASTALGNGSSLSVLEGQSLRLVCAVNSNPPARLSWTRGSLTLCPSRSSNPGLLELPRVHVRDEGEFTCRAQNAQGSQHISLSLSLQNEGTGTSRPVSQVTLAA

Binder	EC50 [1]	fold stronger binding than 5C6 [2]	EC50 [3]	binding result [4]	binding result [5]	EC50 [6]	binding result [7]	EC50 [8]
monoclonal antibody 224B1 (rabbit) (antibody, V domains shown) VH: QSVEESGGRLVTPETPLTLTCTASGFSLSSYYMSWVRQAPGKGLEWIGYIWTDGSAHYATWTKGRFTISKTSSTTVDLKITSPTTEDTATYFCVRANSGSHTYIEKFNLWGPGTLVTVSS VL: DVVMTQTPASVEATVGGSVTIKCQASPSINDELSWYQQKPGQRPTLLIYEASALESGVPSRFKGSGSGTEFTLTIGDLECADAATYYCQCTYGSRSDISYGNTFGGGTEVVVKG	100 pM	~10 fold	400 pM	binds	no binding (tested: 5 µg/ml)			
comparative monoclonal antibody mAbA (WO 2017/153433), mouse-human chimera (antibody, human IgG1, kappa, V domains shown) VH: QVQLQQPGAELVKPGSPVKLSCKASYFTFTSYWMHWVRQRPGQGLEWIGEINPSNGHTNYNEKFESKATLTVDRSSSTAYMQLSSLTSEDSAVFYCANGVESYDFDDALDYWGQGTSVTVSS VL: DIQMTQTTSSLSASLGDRVTISCRASQDINNYLNWYQQKPDGTIKLLIYYTSRLHSGVPSRFSGSGSGTDYSLTINNLEQEDIATYFCQQGNTLPFTFGGGTKLEIKR						580 pM	no binding (tested: 5 µg/ml)	420 pM
